The chains are these.
B1: DFB-1 (designed binder)
chain: NTHFIVVHGSEDAAQLAEELVREISKKEGTEVRFEKKDGLLSIEVKNLSEERQREIQKALQLVQDVANAERVVRERPGSNLAKKALEIILRAAEELAKLDLKASLKAAVRAAEKVVREQPGSNLAKKALEIILRAAEELAKLPDPEALKEAVKAAEKVVREQPGSNLAKKALEIILRAAAALANLPDPESRKEADKAADKVRREQPGSELAVVAAIISAVARMGVKMELHPSGNEVKVVIKGLHIKQQRQLYRDVREAAKKAGVEVEIEVEGDTVTIVVRGGSHHWGSGSHHHHHH
notes: Bivalent connector
B2: 274B53 (designed binder)
chain: NTHFIVVHGSEDAAQLAEELVREISKKEGTEVRFEKKDGLLSIEVKNLSEERQREIQKALQLVQDVANAERVVRERPGSNLAKKALEIILRAAEELAKLDLKASLKAAVRAAEKVVREQPGSNLAKKALEIILRAAEELAKLPDPEALKEAVKAAEKVVREQPGSELAKKALEIIERAAEELKKSPDPEAQKEAKKAEQKVREESGSHHWGSGLNDIFEAQKIEWHEGSHHHHHH
notes: also called LHD274B DHR53 stop
B3: LHD101 chainB (designed binder)
chain: GRQEKVLKSIEETVRKMGVTMETHRSGNEVKVVIKGLHESQQEQLLEDVLRTAEKQGVRVRIRFKGDTVTIVVRE
notes: also called LHD101B
B4: DFA-1 (designed binder)
chain: TTNFHLINGSEEARQLIEKAVRAISKKEGTEVHFEKSDGTLEIRVKNLHEKREREIKKVIELILEVAAAERIVRERPGSNLAKKALEIILRAAEELAKADVDAALEAAVRAAEKVVREQPGSNLAKKALEIILRAAEELAKLPDPEALKEAVKAAEKVVREQPGSNLAKKALEIILRAAAALANLPDPESRKEADKAADKVRREQPGSELAVVAAIISAVARMGVKMELHPSGNEVKVVIKGLHIKQQRQLYRDVREAAKKAGVEVEIEVEGDTVTIVVRGGSHHWGSGSHHHHHH
notes: Bivalent connector
B5: RingA (designed binder)
chain: GSSIFLLSNVSEDAAQLAEELVREISKKEGTEVRFEKDDGFLTIEVKNLSEERLREIAKALQLIVDVANAERVVRERPGSNLAKKALEIILRAAEELAKLDLKASLKAAVRAALKVVAEQPGSNLAKKALEIIQRAAEELAKLPDPEAQKEAQLAAELVRAAELAKSPDPEDLKEAVRLAEEVVRERPGSNLAKAALAIILRAAEELAKLPDPEALKEAVKAAEKVVREQPGSNLAKKALEIILRAAAALANLPDPESRKEADKAADKVRREQPGSELAVVAAIISAVARMGVKMELHPSGNEVKVVIKGLHIKQQRQLYRDVREAAKKAGVEVEIEVEGDTVTIVVRGGGSWGLEHHHHHH
notes: Component of the two-component C4 ring (four copies of each in the ring); also called 29B_53_101A
B6: RingB (designed binder)
chain: GTWQWVLINISEEARQLIEKAVRAISKKEGTEVHFEKDDGVLHIRVKNLHEKRAREIHKVAKLILEVAAAERIVRERPGSNLAKKALEIILRAAEELAKADVDAALEAAVRAAEKVVREQPGSNLAKKAMEIILRAAEELAKLPDPEAQKEAAKAIARRVAAKVEELKRSGTSEDEIAEEVAREISEVIRTLKESGSSYEVICECVARIVAEIVEALKRSGTSEDEIAEIVARVISEVIRTLKESGSSYEVICECVARIVAEIVEALKRSGTSEEEIAEIVARVIQEVIRTLKESGSSYEVIRECLRRILEEVIEALKRSGVDSSEIVLIIIKIAVAVMGVTMEEHRSGNEVKVVIKGLHESQQEELLELVLRAAELAGVRVRIRFKGDTVTIVVRGGGSLEHHHHHH
notes: Component of the two-component C4 ring (four copies of each in the ring); also called 29A_53_4_101B
B7: 275B (designed binder)
chain: GGSDVEWRYTNISEETQQKSAEFVLEIALRAGTGVTFTTRQGELQIQVHNLDELLAIAMLCYTLGLLLGDHRVQELAKRAVEAWERGDEERVKKLLIEALKRLVETAEEVVRERPGSNLAKLALEIILRAAEALARAEDPESLKEAVKAAEKVVREQPGSNLAKKALEIILRAAEELAKLPDPEALKEAVKAAEKVVREQPGSELAKKALEIIERAAEELKKSPDPEAQKEAKKAEQKVREERPGSGGSGSHHWGSGSHHHHHH
notes: also called LHD275 B; LHD275B
B8: LHD29 chainB (designed binder)
chain: SSIFLLSNVSEEARQRAEEYVRRISKKEGTEVRFEKDDGFLTIEVKNLSEERLREIAEYLWRVAV
notes: also called LHD29B; 29B

In one series the target is T1, 101B62.
T1 construct: also called LHD101B62
T1 chain: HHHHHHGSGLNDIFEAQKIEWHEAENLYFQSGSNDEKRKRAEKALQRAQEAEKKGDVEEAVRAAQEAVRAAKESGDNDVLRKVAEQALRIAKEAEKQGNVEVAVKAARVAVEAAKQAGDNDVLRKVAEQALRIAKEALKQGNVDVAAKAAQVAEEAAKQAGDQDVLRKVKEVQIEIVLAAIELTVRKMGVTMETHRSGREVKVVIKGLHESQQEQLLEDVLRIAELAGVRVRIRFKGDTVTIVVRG
The series can be described thus: SEC of mixed components; linear tetramer listed in Table 6, neighbours in the chain. As to the method:
(§1) Complexes and individual components were diluted in 20 mM Tris pH 8.0, 100 mM NaCl. After o/n equilibration of the mixtures at room temperature or 4 degrees C., 500 ul of sample was injected onto a Superdex™ 200 10/300 increase GL (dimers, linear assemblies) or Superose™ 6 increase 10/300 GL (symmetric assemblies) (all columns from GE healthcare) using the absorbance at 230 nm or 473 nm (for GFP tagged components) as read-out. Dimers were mixed at monomer concentrations of 5 μM or higher. Trimer and ABCD tetramer mixtures contained 5 μM of the bivalent connector, and 7.5 μM of each terminal cap (lower absolute concentrations with the same ratios were used for some trimers). ABCA tetramer mixtures contained 5 μM per bivalent connector and 15 μM terminal cap. The hexamer mixture contained 3 μM of components C and D, 3.6 μM of B and E, and 4.4 μM of A and F. The branched assembly shown in FIG. 4A contained 2.8 μM of the trivalent connector and 4 μM of each cap. For the exchange experiment shown in FIG. 5A, the ABC trimer was preincubated at concentrations of 6 μM B and 9 μM each of A and C. C′ was then added to reach a final concentration of 2 μM B, 3 μM each of A and C, and 6 μM C′.

Series [1] concerns the molecule itself. In words: SEC titration (Superdex 200, normalised A230) of 274B53 and 29B53 alone; self-association.
The target of the series “DFA-1” is B4. The series can be described thus: SEC of mixed components; trimer listed in Table 6. As to the method:
as §1

Series [2] concerns the molecule itself. The series can be described thus: SEC titration (self-association).
For another series, the target named is T2, DFB0.
T2 construct: Bivalent connector
T2 chain: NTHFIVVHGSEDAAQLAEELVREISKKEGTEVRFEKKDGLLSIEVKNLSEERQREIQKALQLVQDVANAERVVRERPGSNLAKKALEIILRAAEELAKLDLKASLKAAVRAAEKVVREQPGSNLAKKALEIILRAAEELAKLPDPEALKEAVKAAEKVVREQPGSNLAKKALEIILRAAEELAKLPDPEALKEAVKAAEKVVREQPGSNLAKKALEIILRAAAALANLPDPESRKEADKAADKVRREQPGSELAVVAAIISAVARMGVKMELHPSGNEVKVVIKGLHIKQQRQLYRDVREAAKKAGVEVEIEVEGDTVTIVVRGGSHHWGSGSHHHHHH
In words: SEC of mixed components; linear tetramer listed in Table 6, neighbours in the chain. As to the method: as §1

The series “DFB-1” concerns the target B1. Described as above. As for the experimental part:
as §1

Series [3] concerns the molecule itself. In words: SEC and native MS (self-association).
Another series deals with T3, DF275A-1.
T3 construct: Bivalent connector
T3 chain: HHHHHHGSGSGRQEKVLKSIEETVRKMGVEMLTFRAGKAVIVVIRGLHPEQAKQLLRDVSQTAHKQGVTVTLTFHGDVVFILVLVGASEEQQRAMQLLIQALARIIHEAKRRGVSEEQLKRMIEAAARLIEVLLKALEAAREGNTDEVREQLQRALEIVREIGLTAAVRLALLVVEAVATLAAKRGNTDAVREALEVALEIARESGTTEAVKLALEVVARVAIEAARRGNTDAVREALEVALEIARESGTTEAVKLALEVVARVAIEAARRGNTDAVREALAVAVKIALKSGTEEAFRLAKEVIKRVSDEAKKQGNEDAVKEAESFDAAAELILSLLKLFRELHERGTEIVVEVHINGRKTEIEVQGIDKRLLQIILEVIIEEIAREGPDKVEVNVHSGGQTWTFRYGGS
The series can be described thus: SEC of partial and full mixtures followed at 473 nm (GFP on component C) and negative-stain EM; components as named for the hexamer in the legend of FIG. 16C and in Table 6. As to the method:
as §1
SEC peak fractions were concentrated prior to negative stain EM screening. Samples were then immediately diluted 5 to 150 times in TBS buffer (25 mM Tris pH 8.0, 25 mM NaCl) depending on sample concentration. […]

In the next series the target is T4, TF3.
T4 construct: Trivalent connector
T4 chain: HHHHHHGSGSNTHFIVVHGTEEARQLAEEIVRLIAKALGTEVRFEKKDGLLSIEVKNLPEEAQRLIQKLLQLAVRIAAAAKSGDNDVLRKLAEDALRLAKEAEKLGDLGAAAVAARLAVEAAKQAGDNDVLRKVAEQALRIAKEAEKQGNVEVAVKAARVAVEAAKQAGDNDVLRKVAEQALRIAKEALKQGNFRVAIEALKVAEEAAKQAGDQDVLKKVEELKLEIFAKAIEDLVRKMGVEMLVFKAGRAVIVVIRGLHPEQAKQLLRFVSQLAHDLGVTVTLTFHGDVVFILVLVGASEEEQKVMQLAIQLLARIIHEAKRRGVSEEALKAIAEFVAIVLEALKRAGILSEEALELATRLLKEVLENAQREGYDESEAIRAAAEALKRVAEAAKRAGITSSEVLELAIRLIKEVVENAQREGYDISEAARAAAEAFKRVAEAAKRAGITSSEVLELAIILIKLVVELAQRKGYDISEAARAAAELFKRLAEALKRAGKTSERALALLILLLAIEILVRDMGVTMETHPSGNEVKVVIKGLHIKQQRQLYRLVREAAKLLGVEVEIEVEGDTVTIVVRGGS
The series can be described thus: SEC of the trivalent connector TF3, its three caps and the full mixture, with SDS-PAGE of the fractions; components named in the legend.

Series [4] concerns the molecule itself. In words: SEC titration of the protomer alone at several injection concentrations (Superdex 200, normalised A230); self-association.
Series [5] concerns the molecule itself. The series can be described thus: BLI conditions (self-association).

Turning to B1, in the series with 101B62, the binding result is “binds”.
As to B2, the binding result (in [1]; with DFA-1) was “binds” in each case.
Take B3: in [2], the binding result was “no binding (tested: above 100 µM)”.
As to B4, the binding result with DFB0 and with DFB-1 was “binds” throughout.
On to B5, for which the binding result in series [3] is “no binding”.
Still for that read-out and setting: to B6 belongs “no binding”.
Take B7: the binding result (with DF275A-1; with TF3; in series [4]) was “binds” each time.
For the molecule B8, the binding result in series [5] is on record as “binds”.

The values above are taken from US20240368233A1 (University of Washington, published 2024).
